# B1: Hsp33^M172SL202BPA (natural protein)
# chain: MIMPQHDQLHRYLFENFAVRGELVTVSETLQQILENHDYPQPVKNVLAELLVATSLLTATLKFDGDITVQLQGDGPMNLAVINGNNNQQMRGVARVQGEIPENADLKTLVGNGYVVITITPSEGERYQGVVGLEGDTLAACLEDYFMRSEQLPTRLFIRTGDVDGKPAAGGSLLQVMPAQNAQQDDFDHLATLTETIKTEEFLTLPANEVLWRLYHEEEVTVYDPQDVEFKCTCSRERCADALKTLPDEEVDSILAEDGEIDMHCDYCGNHYLFNAMDIAEIRNNASPADPQVH
# modifications: p-benzoyl-L-phenylalanine (BPA) at position 202
# Target: the molecule itself
# Assay: cross-linking; in vitro UV crosslinking of purified Hsp33^M172S-BPA variants alone; dimers at ∼70 kDa
protein,measurement,value
B1,stoichiometry N,2

# Source: publication PMC4735815, “Protein unfolding as a switch from self-recognition to high-affinity client binding” (Nature Communications, 2016)
